The target in assay [1] is c-Met receptor on OVCAR-8 cells (human) (UniProt P08581). The assay is described as follows: cell-based or functional assay.
In a further assay the target is human c-Met ECD (human) (UniProt P08581). The assay is described as follows: SPR (Biacore T100), antibody captured by anti-Fc gamma, c-Met ECD in solution, 25 C.

pKd: −log10 of the molar value.

In general, pKd refers to the negative decadic logarithm of the Kd, by convention in mol/L. High values mean a low Kd, low ones a high Kd. Consider “BsAB01, trivalent bispecific <ErbB1-c-Met> antibody (full length cetuximab with one c-Met 5D5 single chain Fab fragment at the C-terminus of the knob heavy chain) (bispecific antibody)”, for which, in assay [1], the % Internalization of c-Met after 2 h on OVCAR-8 cells (=100-% antibody on cell surface) was -14% and the % c-Met receptor on OVCAR-8 cell surface measured after 2 h came to 114%. The pKd with human c-Met ECD (human) is 8.26.
